This is an account of results in article doi:10.1101/2020.01.12.903617, “The peptide sensor motif stabilizes the outward-facing conformation of TmrAB” (bioRxiv, 2020).

The target in this assay is T1, TmrAB G116A^TmrB (Thermus thermophilus, UniProt Q72J05 1-600; Q72J04 1-578, G116A).
T1 construct: TmrA, Thermus thermophilus, the chain of TmrAB with the canonical Walker B motif; TmrB, Thermus thermophilus, the chain of TmrAB with the non-canonical Walker B motif
T1 sequence 1: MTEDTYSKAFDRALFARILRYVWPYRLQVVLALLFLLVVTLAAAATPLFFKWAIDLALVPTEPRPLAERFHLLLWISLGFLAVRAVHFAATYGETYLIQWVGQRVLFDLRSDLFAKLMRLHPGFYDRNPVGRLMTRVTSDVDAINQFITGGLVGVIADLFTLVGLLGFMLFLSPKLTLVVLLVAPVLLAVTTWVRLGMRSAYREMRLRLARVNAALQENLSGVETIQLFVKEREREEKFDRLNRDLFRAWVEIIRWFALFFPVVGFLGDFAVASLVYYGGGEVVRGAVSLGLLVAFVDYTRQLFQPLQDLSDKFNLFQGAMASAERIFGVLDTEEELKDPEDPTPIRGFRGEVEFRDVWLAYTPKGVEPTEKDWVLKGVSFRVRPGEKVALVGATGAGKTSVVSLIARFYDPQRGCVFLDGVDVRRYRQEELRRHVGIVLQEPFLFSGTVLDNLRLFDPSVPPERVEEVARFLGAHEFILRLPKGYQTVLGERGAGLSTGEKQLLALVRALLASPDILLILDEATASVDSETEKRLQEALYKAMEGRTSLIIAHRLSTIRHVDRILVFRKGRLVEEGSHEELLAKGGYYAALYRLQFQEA
T1 sequence 2: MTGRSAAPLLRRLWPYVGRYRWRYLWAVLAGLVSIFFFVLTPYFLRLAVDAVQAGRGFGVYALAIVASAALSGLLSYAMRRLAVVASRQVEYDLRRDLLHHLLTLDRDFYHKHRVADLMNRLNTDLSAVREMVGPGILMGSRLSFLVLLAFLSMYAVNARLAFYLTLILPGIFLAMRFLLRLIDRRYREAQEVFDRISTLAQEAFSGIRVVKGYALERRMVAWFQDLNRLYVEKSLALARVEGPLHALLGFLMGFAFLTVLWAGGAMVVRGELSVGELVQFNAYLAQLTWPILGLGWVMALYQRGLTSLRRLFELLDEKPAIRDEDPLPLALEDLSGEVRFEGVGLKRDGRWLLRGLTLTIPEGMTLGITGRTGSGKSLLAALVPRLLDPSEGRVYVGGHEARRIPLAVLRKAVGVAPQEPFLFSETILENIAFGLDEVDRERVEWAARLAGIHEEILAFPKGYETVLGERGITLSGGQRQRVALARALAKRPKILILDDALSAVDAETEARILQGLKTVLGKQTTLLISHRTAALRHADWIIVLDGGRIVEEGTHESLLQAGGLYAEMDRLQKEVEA
Description: fluorescence polarisation; 1.7 uM TmrAB with 50 nM RRY(C^Fluorescein)KSTEL in SEC buffer (20 mM HEPES, 150 mM NaCl, pH 7, 0.05% ß-DDM), 15 minutes on ice, in the absence or presence of 5 mM ATP and 10 mM MgCl2; read at 25°C (the results say 4°C); signal normalized to WT without ATP. To be noted: both partners purified. (Fluorescence polarisation rises when a labelled molecule tumbles more slowly, as on binding a larger partner.)

No end group written: not given here. fluorescein = fluorescein label attached to the Cys side chain

B1: fluorescent transport substrate peptide RRY(C^Fluorescein)KSTEL (peptide)
peptide: RRYC(fluorescein)KSTEL
notes: fluorescein-labelled transport substrate peptide of TmrAB; also called fluorescently-labeled peptide substrate; peptide substrate; source: bought: Genscript
On to B1, for which the binding result is listed as “binds”.
